In the DeepSol protein solubility set:

Assay: soluble on expression in E. coli; label from the status in PepcDB or PDB records

| Sequence | soluble on expression in E. coli |
| --- | --- |
| MSLDAISAATHSDPYFYYTRLRARGGLTYDCALRLWVASSAAAVAAVLDHPACQVRPSTEPVPQAIAGRPAGQLFGRLMRMNDGPRQRCPRAAIEPALQGLCTAGLETHLARWQPALAGPACAADLQRWQFVLPVALLASLLGVPAEQCETLARRTGEFVACFSPLSDQPRLQAADRAALELDAQMQALVQAPQHSPLLRQILDRSGELAPADLRANLAGLLAQTHDACAGLVGNSLVALLAAPAMQQRLRQEPGLLGDWLLERQRLDPPVQNTRRFVTAPCTVHGVELQAGETILVLLAAANQDPALAAITGSNPAHQGFSFGAGAHRCPGRELALGIVRCLLHALLQGPGLDALALDWQYQASVNGRIPLFSDRGEAEGHHHHHH | not soluble |
| ESVLTQPPSVSGAPGQRVTISCTGSSSNIGAGYDVHWYQQLPGTAPKLLISGNSNRPSGVPDRFSGSKSGTSASLAITGLQAEDEADYYCQSYDSSLSGSVFGGGTKLTVLGQPKAAPSVTLFPPSSEELQANKATLVCLISDFYPGAVTVAWKADSSPVKAGVETTTPSKQSNNKYAASSYLSLTPEQWKSHRSYSCQVTHEGSTVEKTVAPTECS | soluble |
| MGSDKIHHHHHHMLSYYGRLSSEVYDIDKPIDHSFRDVEFYIDRLNLCRGHILEPATGTGRVLVPLLEKGFKVDGFDSSKDMLNICRDNCRKKGLNPKLFEAKMESFIQDTRYDAIIVPAGTFLLLHQRADSIRALQNFHKHLCTGGRLIIDILMQTDFSTGTVSTRTWVCSNGDLITLESKVVEVDYINQYTVSHNRYEKWREGVLIQTELERFPLRWYGLEEFKLILESTGFKDIVISSDYKFGQYPSNVKDVITFEAVAIN | not soluble |
| AHHHHHHGSELFFITSNDGKVREAKKFLEPLGINVIKKPLEYPEIQADTLEDVVVFGLNWLKDKVDKPFIIEDSGLFIEALNGFPGVYSAYVYKTIGLDGILKLMEGIENRKAYFKSVIGFYDGEIHLFVGEVRGRISNEKRGLHGFGYDPIFVPDGFDKTFAEMSTEEKNSVSHRGKALKEFYRWMKENLKK | soluble |
| MGHHHHHHSHMMQSVDVVIIGGGMVGLALAAALKESDLRIAVVENQLPEEALNPLPDVRVSALSRSSEIVLRNLNAWAGIEARRAAPYIAMEVWEQDSFARIEFKANEMTQPNLGHIVENRVIQLALFEQVQQQANVTLHVPATCQSIAVGESEAWLTLSNGQALSAKLVVGADGANSWLRRQMDIPLTHWDYGHSALVANVRTSDPHNKVARQIFTAQGPLAFLPMSEPHMSSIVWSTEPSRAEALLNMNDVQFNKALTAEFDARLGRCEVVGERQAFPLKMRYARDFVAPRVALVGDAAHTIHPLAGQGVNLGLLDAACLAQELLSLWQQNRDIGDERNLRHYERWRKAEAAKMIAAMQGFRDLFEGDNPAKKLIRGIGMRLVGQLPGAKDEIMKRALGLKGDLPELAKQVWLERAY | soluble |
| MTEPRSYTIEEIASLLKVSKLTVYDLVKKGKLPAFRVGRQMRITADDLRRFIAGQKGEASTVFSAVSRPTETAFRPIIISGQDMALDLLGVHLEKGGPYQSLRTYTSSLNGLIALYKGQCDIVSVHLFDGQTGEYNRPYVEKLLTGHAYIMVNLMRRPIGFYVPKGNPRGIHTWSDLGRSDVVIVNREKGAGARVLLDEQLRLHGLSPSAIRGYEREETSHLSVASAVAAGLADVGIGTEKVARMAGVEFIPLMNEQYDVVMLRTPENESLIASVLDVLRSDSFRAELEALGGYDVSQTGRIMAEYG | not soluble |
| MAVENITMPQLGESVTEGTISKWLVNVGDHVNKYDPLAEVMTDKVNAEVPSSFTGIVKELIAGEGDTLAVGEVVCVIQVEGADEVAATAVEEKTKEEPKAEVNTPEKAPKAKQPTDGKPRFSPAVLKLAGEHNVDLDLVEGTGANGRITRKDILKLVESGNIPQAGAVKKEEAVAAVVEARPEAPKAAPVAQKVEAAKPVSVPTMPGDIEIPVTGVRKAIAANMLRSKHEAPHAWMMIEVDVTNLVSYRNSIKGDFKKREGFNLTFFAFFVKAVAQALKEYPQINSMWAGDKIVQKKDINLSIAVATEDELFVPVIKHADEKTIKGIAREITELAGKVRTKSLKADEMQGGTFTINNTGSFGSVQSMGIINYPQAAILQVESIVKRPVIMENGMFGARDMVNLCLSLDHRVLDGLICGKFLGRVKEILENTSENNTSVY | not soluble |
| MTQETFTATTRVKRGLADMLKGGVIMDVVTPEQARIAEDAGASAVMALERVPADIRAQGGVARMSDPDLIEGIVNAVSIPVMAKARIGHFVEAQILESLGVDFIDESEVLSPADYVNHIDKWNFDVPFVCGATNLGEALRRITEGAAMIRSKGEAGTGDVSEAVKHLRTIRGEINRLRSMDEDQLYVAAKEIQAPYDLVREVAATGKLPVTLFVAGGVATPADAALVMQMGAEGVFVGSGIFKSGNPAARAAAIVKATTMYDDPAAIAEVSRGLGEAMVGINVADVPAPHRLAERGW | not soluble |
| MAHHHHHHMFSSSTGAGAAAAAKPSAGPPSVALATVTVNEDPNIEVLLASKRIQKLTRATDALIARDFVLREEEAILDDLEAYIISLESEVRKAEFQTEELRSRSSLLRPGKRCAIAGENVELSALWNAYGSDMGYLVKRHSLRLAVLEKALATVSTRNPELPVPKPLPPPPVTKTSKTMSAMRDMSQRQKAPS | not soluble |
| MSKQDLLLEIGLEEMPARFLNESMVQLGDKLTGWLKEKNITHGEVKLFNTPRRLAVFVKDVAEKQDDIKEEAKGPAKKIALDADGNWTKAAIGFSKGQGANVEDLYIKEVKGIEYVFVQKFQAGQETKSLLPELSGLITSLHFPKNMRWGNEDLRYIRPIKWIVALFGQDVIPFSITNVESGRTTQGHRFLGHEVSIESPSAYEEQLKGQHVIADPSVRKQMIQSQLETMAAENNWSIPVDEDLLDEVNHLVEYPTALYGSFESEFLSIPEEVLVTTMKEHQRYFPVKDKNGDLLPHFITVRNGNSHAIENVARGNEKVLRARLSDASFFYKEDQKLNIDANVKKLENIVFHEELGSLADKVRRVTSIAEKLAVRLQADEDTLKHVKRAAEISKFDLVTHMIYEFPELQGIMGEKYARMLGEDEAVAAAVNEHYMPRSAGGETPSTFTGAVVAMADKLDTIASFFSIGVIPTGSQDPYGLPRQASGIVAILLDRNWGISFEELLTFVQTDKENELLDFFTQRLKYVLNAEQIRHDVIDAVLESSELEPYSALHKAQVLEQKLGAPGFKETAEALGRVISISKKGVRGDIQPDLFENEYEAKLFDAYQTAKENLQENFSKKDYEAALASLAALKEPIDAYFDHTMVIADNESLKANRLAQMVSLADEIKSFANMNALI | not soluble |
| MSLKWTIYQLHQMPKQSFEFDETVELNELTKLNSDIRRISPVRVKGRADIKSKQVSFDFTISGEMLLPCSRTLVDVPYPFEISTKELFIFHHTDDIEDDDVHIVEDDTIDITPIVKEEILLEIPMQIFCESEQEKGAAPQEGKDWQVISEEDKKNQVDPRLAALEKLLKQDDESEGHHHHHH | soluble |
| MYIECEGILKRYFKDVPEIIKRACKFAREKLGEGSHGFSHTLRVLAIALHIGSKENADLEILALAALLHDIARPLEDKGVIRDHAIEGAKIAKEFLSNYEKVEEVAHAIASHRFSNDVEPRTLEAKILSDADKIDALGAIGIARVFIYSCEKERSIEDSIKHFEEKILKLKDLMYTKTGKEIAEKRHKVVKWYVETLKSELREFLYLEHHHHHH | soluble |
| MGYIEDMRNLVGNHPLILIGSHAIILNEKDEVLLQLRTDFNRWGIIGGALEYNETLEDALKREVFEETGLIIKNPELFRTYSGPDFFQIYPNGDQVHGVLVVYICREFHGELVCDHTESKELRFFSLDELPNNLPPVIEKIITDYLKK | not soluble |
| MAKVVVLGAGVSGHTCASFLKKKLGKQHEVVVISPNSYYQWIPSNIWVGVGHMTIDDVRFKLKKVYDRWGIDYKQAKAVSIHPEGDANISKGYVTIEYTDEEHAGYTETVDYDYLVNATGPKLNFEATEGLGPDKNSLSVCTYSHAAHAWEELQKSIEKMKNGQKQRFLIGTGHAMATCQGAAFEYILNVAHEISRRGLSHMAELTWISNEYELGDFGMGGAFIKRGGYITPTKVFTESLLAEYGIKWIRRAGVYKVEPGVAHYETLDGEMLSQEFDFAMLIPSFSGVGLTAFDKSGNDITDKMFLPNKFMKVDADYTAKPFGEWGANDWPTIYQTPMYSNIYAAGIAFAPPHSISKPMTSVNGRQIFPTPPRTGMPSGVIGKIIALNISEQIKGNHKEHHHKASMARMGAACIVSAGFGSFDGLGASMTVFPIVPDWEKYPEWGRDMTYSVGEVGLAGHWLKFMLHYLFFHKAKGYPFWYLIPELEHHHHHH | not soluble |
| MRVAYVLSSPRAASHKLGQMILPQLEAGTHGVEVVGIFFFDDNTLVLQKGNPIGERLAKVAKEKGILLMMCDLCALERGLAEGEPRWCTPEGEGRKTPGTCRVSPHVVEGVEVGCFPDLYRALAGRVDQVITL | soluble |
| MAGGDDLKLLGAWPSPFVTRVKLALALKGLSYEDVEEDLYKKSELLLKSNPVHKKIPVLIHNGAPVCESMIILQYIDEVFASTGPSLLPADPYERAIARFWVAYVDDKLVAPWRQWLRGKTEEEKSEGKKQAFAAVGVLEGALRECSKGGGFFGGDGVGLVDVALGGVLSWMKVTEALSGDKIFDAAKTPLLAAWVERFIELDAAKAALPDVGRLLEFAKAREAAAAASK | soluble |
| MLEEIPSSVEADLMPNLDSNVSSDNGTSKRFRIQANAVEARSFFASLVKGTEYSVAIHPAVQGNITVNLSDVTLDEVLSVVQNMYGYDVMKSGKVIQVYPAGMRTVTIPVDYLQFKRSGRSLTSIVTGSVTSAGTSNSGGSSDSSDSSDSNNSNNGNDSSTTSTGGTRIETITESDFWPMLQQAVANLIGSGKGQSVVVTPQAGVITVRAFPDDIREVREFLGVSQERMQRQVILEAKILEVTLSDGYQQGINWSNLSASIGNSGSIIVNRPASALPPLDAIGTLLGGQTNVTISDGNFEAVLNFMSTQGDLNVLSSPRITAANNQKSVIKVGTDQYFVTELSSNAGNGENSNAVPEVELTPFFSGISLDVTPQIDNKGNVFLHVHPAVIEVTEEVKQLNLGGDFQNIQLPLAKSSIRESDSVIRAKDGDVVVIGGLMKQQNVEQVSKVPFLGDVPALGHLFRNTSNVTQKTELVILLKPTVVGVNSWQKELERSRDLLQEWFPDAQLEHHHHHH | soluble |
| MKYTKGTYSSSAKGHSSNVNLTVNFDSDKIKNVSINVEGETSQRNKDVVSQLSAQILKKQDDSLDAVTGATETSNAVRRALTDCIKQATGDTENQTKTPLKDGTYTETVPSYSLIAPMTGEVTIKNNKIKNIKITSEKDSQTSPWFHVAEKKFIPRLIESQSLDTDAVTGASVSSGAIKSIAEKAIKDAGGNNDEWHTPVTKKNDTVEKKDFDVIVVGLGGSGILSYCAAAKSGAKVFGLDIAAGIGGNSISTSGPMVVNSKIQSKKYNDGKDNIDPEDLYNTWIDYVKTDKKAAVIKKAIYEDGPALDYYMKNFGFSFDSPAFGMPAGYFPSFVRQDWTKEWAVYTAKDNKWYSAGQPVHIDQYQNALDKAKGMNPVNDYQLELAAKDFIKDDSGKVIGVKAVSYDGTTYNIYGRAVILASGGFVGNNQMMKDVYGHTCHTFGSTTAKGQGIKMGQSIGGNTYALRTLPMIHISQVPNIIRDDSLTPDQKATLSALAITSDAKQIDETGNILGSKDESGIEESKLTVGIAYAPGFHYFNAYTKEDLDKMKNEGVSETTSKVVVIILDQGGKVPAAHTPIKDIDKIVDEAIKHGDAWKGTPSELAKQLNMDEAKLTKSLGDPNKEYYLFEAAGYAYATCGGLDVDEDMNVLRQDGSKIENVFAVGQDSEGVENRNDEAYTPWGGQAQAWTFVSGKIAGENAAKILEHHHHHH | soluble |
